Data on 9 molecules can be found in patent US20210079060A1 (ALETA BIOTHERAPEUTICS, published 2021).

Where “and” joins values, the source holds several entries; their conditions need not be identical. Identical values can stand only once. Like-named read-outs stand apart in the source and are kept apart here.

By EC50 is commonly meant the concentration that produces a half-maximal response. A low value points to greater potency. One may read the EC50 (read off the curve) as the concentration giving half of the maximal effect. High values mean lower potency in that assay, low ones higher potency in that assay. For orientation: Kd means the free concentration of one partner at which half of the binding sites on the other are occupied at equilibrium, for simple one-to-one binding. High values mean weaker binding, low ones tighter binding.

The target in assay [1] is T1, CD20 (UniProt P11836 1-297, limits assumed).
T1 construct: whole, on cells; also called CD20 positive HEK293 cells
T1 sequence (looked up): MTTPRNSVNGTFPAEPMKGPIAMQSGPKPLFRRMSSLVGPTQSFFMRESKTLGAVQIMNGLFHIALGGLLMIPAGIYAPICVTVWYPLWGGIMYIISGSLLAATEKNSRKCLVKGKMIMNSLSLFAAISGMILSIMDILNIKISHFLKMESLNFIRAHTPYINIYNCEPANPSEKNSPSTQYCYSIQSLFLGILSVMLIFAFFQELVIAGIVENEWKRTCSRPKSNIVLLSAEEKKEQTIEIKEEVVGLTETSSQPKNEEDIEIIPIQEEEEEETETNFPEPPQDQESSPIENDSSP
Description: FACS on 293T cells transfected with CD20, FMC63-PE detection.

The target of assay [2] is T2, EGFR (UniProt P00533 25-1210, limits assumed).
T2 construct: whole, on cells; also called EGFR positive cells; EGFR positive H292 cells
As to the kind of experiment: binding to EGFR positive cells (data not shown).

Assay [3] has as its target T3, Clec12A (human, UniProt Q5QGZ9 1-265).
T3 construct: whole, on cells; also called CLL-1; MICL
T3 sequence (looked up): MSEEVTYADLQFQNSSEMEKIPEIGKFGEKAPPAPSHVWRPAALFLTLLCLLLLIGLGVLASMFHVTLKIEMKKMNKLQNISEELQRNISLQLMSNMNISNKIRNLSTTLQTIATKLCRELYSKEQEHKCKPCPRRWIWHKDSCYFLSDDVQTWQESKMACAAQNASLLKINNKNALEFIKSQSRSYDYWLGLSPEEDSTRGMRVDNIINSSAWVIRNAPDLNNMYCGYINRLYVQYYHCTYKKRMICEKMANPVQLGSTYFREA
As to the kind of experiment: FACS on Clec12A-expressing U937 cells, % Binding against concentration, detected with FMC63-PE; molar value with printed MW 43.7 kDa.
Description: (§1) In addition, bispecific constructs were generated and assayed. […] These constructs were assayed for binding to U937 cells. […] Cells were then spun, washed twice, fixed, and analyzed by FACS.

In assay [4] the target is T3, Clec12A. Description: FACS on Clec12A expressing U937 cells, detected with a-His-PE.
For assay [5], the target named is T3, Clec12A. As to the kind of experiment: FACS on Clec12A-expressing U937 cells, % Binding against concentration, detected with FMC63-PE.
Description: as §1
Assay [6] addresses T3, Clec12A. Description: sandwich ELISA: coated with FMC63, construct titrated (x-axis ug/ml), followed by Clec12A-bio, detected by HRP-SA.
The target of assay [7] is T3, Clec12A. Description: FACS on Clec12A expressing U937 cells, detected with FMC63-PE.
For assay [8], the target named is T1, CD20. As to the kind of experiment: FACS on CD20 positive HEK293 cells, detected with FMC63-PE.
In assay [9] the target is T1, CD20. Description: binding to CD20 positive HEK293 cells (method of the fit not stated); scFv-based construct #302 (Leu16 scFv), not the full mAb.
The target in assay [10] is T3, Clec12A. Description: sandwich ELISA as for the other curves; the curve still rises at 1 ug/ml (about 1.33), no upper plateau; fit D 1.55.
For assay [11], the target named is T3, Clec12A. As to the kind of experiment: sandwich ELISA: coated with FMC63, construct titrated, followed by Clec12A-bio, detected by HRP-SA.
For assay [12], the target named is T3, Clec12A. As to the kind of experiment: sandwich ELISA as for the other curves; the curve stays near 0.13 up to about 0.33 ug/ml and reaches only about 0.18 at 1 ug/ml (fit A 0.13, D 0.202). Background: In an ELISA, binding on a coated surface is turned into a signal by an enzyme label.
The target in assay [13] is T3, Clec12A. As to the kind of experiment: sandwich ELISA: coated with FMC63, construct titrated (x-axis ug/ml), followed by Clec12A-bio, detected by HRP-SA. This is another data set of the same source.

B1: CD19 D1+2-anti-CD20 scFv (VH/VL) (scFv)
chain: PEEPLVVKVEEGDNAVLQCLKGTSDGPTQQLTWSRESPLKPFLKLSLGLPGLGIHMRPLAIWLFIFNVSQQMGGFYLCQPGPPSEKAWQPGWTVNVEGSGELFRWNVSDLGGLGCGLKNRSSEGPSSPSGKLMSPKLYVWAKDRPEIWEGEPPCLPPRDSLNQSLSQDLTMAPGSTLWLSCGVPPDSVSRGPLSWTHVHPKGPKSLLSLELKDDRPARDMWVMETGLLLPRATAQDAGKYYCHRGNLTMSFHLEITARPGGGGSGGGGSGGGGSGGGGSMAQVKLQESGAELVKPGASVKMSCKASGYTFTSYNMHWVKQTPGQGLEWIGAIYPGNGDTSYNQKFKGKATLTADKSSSTAYMQLSSLTSEDSADYYCARSNYYGSSYWFFDVWGQGTTVTVSSGGGGSGGGGSGGGGSDIELTQSPTILSASPGEKVTMTCRASSSVNYMDWYQKKPGSSPKPWIYATSNLASGVPARFSGSGSGTSYSLTISRVEAEDAATYYCQQWSFNPPTFGGGTKLEIKRAAAHHHHHH
notes: Wild type CD19 D1+D2 N-terminal to the Leu16 scFv; also called construct #83; wild type CD19 D1+D2 fusion protein
For the molecule B1, in [1], the 50% effective concentration (EC50) was 0.379 µg/mL and 6.68 nM.

B2: CD19 ECD N term mutant#-EGFR Fn3 (designed binder)
chain: PEEPLVVKVEEGDTAALWCLKGTSDGPTQQLTWSRESPLKPFLKYSLGVPGMGVHVRPNAVSLVISNVSQQMGGFYLCQPGPPSEKAWQPGWTVNVEGSGELFRWNVSDLGGLGCGLKNRSSEGPSSPSGKLMSPKLYVWAKDRPEIWEGEPPCLPPRDSLNQSLSRDMTVAPGSTLWLSCGVPPDSVSRGPLSWTHVHPKGPKSLLSLELKDDRPARDMWVMETGLVLPRATAQDAGKWYCHRGNVTTSYHLEITARPVSAHTPLRTGGWKGGGGSGGGGSGGGGSGGGGSVSDVPRDLEVVAATPTSLLISWFDYAVTYYRITYGETGGNSPVQEFTVPGWISTATISGLKPGVDYTITVYAVTDNSHWPFRSTPISTNYRTEIDKPPQHHHHHH
notes: Fusion protein; also called construct #230; CD19-Fn3/EGFR
Regarding B2, the binding result in assay [2] was “binds”.

B3: anti-CLEC12a VHH 2H3-CD19 D1+2 C term mutant #2 (VHH)
VHH: QVQLQESGGGLVQAGGSLRLSCVASGSIRSINVMGWYRQAPGKQRELVAACASDGNTYYADSVKGRFTISRDNAEKTVYLQMNNLKPDDTAVYYCDANSRGNYYSGQGTQVTVSS
notes: also called construct #330
Regarding B3, the EC50 in [3] was 1.03 nM; in assay [4] it was 0.0446 µg/mL and 0.95 nM; in assay [5], 0.0449 µg/mL; in assay [6] it was 0.0168 µg/mL and 0.361 nM; in [7] it was 0.0723 µg/mL and 1.54 nM. Further, the “EC50 (read off the curve)” value in assay [5] was about 0.05 µg/mL. Further, the “C of the 4-P fit (midpoint)” value in assay [6] stood at 0.0168 µg/mL.

B4: anti-CD20 scFv-CD19 D1+2 C term mutant #2 (scFv)
chain: QVKLQESGAELVKPGASVKMSCKASGYTFTSYNMHWVKQTPGQGLEWIGAIYPGNGDTSYNQKFKGKATLTADKSSSTAYMQLSSLTSEDSADYYCARSNYYGSSYWFFDVWGQGTTVTVSSASTGGGGSGGGGSGGGGSDIELTQSPTILSASPGEKVTMTCRASSSVNYMDWYQKKPGSSPKPWIYATSNLASGVPARFSGSGSGTSYSLTISRVEAEDAATYYCQQWSFNPPTFGGGTKLEIKRAAAGGGGSGGGGSGGGGSGGGGSPEEPLVVKVEEGDTAALWCLKGTSDGPTQQLTWSRESPLKPFLKYSLGVPGLGVHVRPDAISVVIRNVSQQMGGFYLCQPGPPSEKAWQPGWTVNVEGSGELFRWNVSDLGGLGCGLKNRSSEGPSSPSGKLMSPKLYVWAKDRPEIWEGEPPCLPPRDSLNQSLSRDLTVAPGSTLWLSCGVPPDSVSRGPLSWTHVHPKGPKSLLSLELKDDRPARDMWVMGTSLMLPRATAQDAGKWYCHRGNLTMSFHLEITARPSRHHHHHH
notes: scFv of anti-CD20 mAb Leu16 fused to a CD19 variant; also called Leu16scFv-CD19 construct
For B4, the half-maximal effective concentration (EC50) in assay [1] is 0.0754 µg/mL and 1.3 nM; in [8], 0.161 µg/mL and 2.78 nM. In [9], this molecule yielded a dissociation constant (Kd) of about 3 nM.

B5: #328 (VHH)
VHH: QVQLQESGGGLVQPGGSLRLSCAASGFTFNSYAMTWVRQAPGKGLEWVSDINSGGGSTNYADSVKGRFTISRDNAKNTLYLQMNSLKPEDTAVYYCATELRGSDYYRGPIREYAYWGQGTLVTVSS
notes: also called anti CLEC12a VHH 1H1-G4Sx4-CD19 C-term mutant #2-His
Regarding B5, the EC50 in assay [10] is 0.155 µg/mL and 3.33 nM.

B6: #320 (VHH)
fusion protein, single chain: PEEPLVVKVEEGDTAVLPCLKGTSDGPTQQLTWSRESPLKPFLKYSLGVPGLGVHVRPDAISVVIRNVSQQMGGFYLCQPGPPSEKAWQPGWTVNVEGSGELFRWNVSDLGGLGCGLKNRSSEGPSSPSGKLMSPKLYVWAKDRPEIWEGEPPCLPPRDSLNQSLSQDLTMAPGSTLWLSCGVPPDSVSRGPLSWTHVHPKGPKSLLSLELKDDRPAREMIVDETGLLLPRATAQDAGKWYCSRGNVTTSYHLEITARPVKAHSDLRTGGWKGGGGSGGGGSGGGGSGGGGSAVQLQESGGGLVQAGGSLRLSCAASGSDRSINVMNWYRQAPGKQRELVAAITSGGTTNYAQSVKGRVTISRDSAKNTVYLQMNSLKPEDTAVYFCKADTRWGGMYWGPGTQVTVSSTSGPGGQGAEQKLISEEDLGAHHHHHHGAS
notes: also called construct #320; CD19 mutant #2-G4Sx4-anti CLEC12a VHH 1B11 myc His
With B6, in [11], the binding result is recorded as “no binding (tested: 1 ug/ml)”.

B7: #331 (VHH)
VHH: QVQLQQSGGGLVQAGGSLTLSCAATGRTIDNGAMAWFRQAPGKQRELVAAINWSGGATFYTDSVKYRFTISRDNVRHTLDLQMTSLKPEDTTIYFCASRRGVDLRRNSYEYDYWGRGTLVTVSS
notes: also called anti CLEC12a VHH 2C2-G4Sx4-CD19 C-term mutant #2-His
As to B7, the EC50 in assay [12] is 0.698 µg/mL and 15 nM.

B8: CD19 ECD N term mutant #2-G4Sx4-anti CLEC12a VHH 1B12-His (VHH)
chain: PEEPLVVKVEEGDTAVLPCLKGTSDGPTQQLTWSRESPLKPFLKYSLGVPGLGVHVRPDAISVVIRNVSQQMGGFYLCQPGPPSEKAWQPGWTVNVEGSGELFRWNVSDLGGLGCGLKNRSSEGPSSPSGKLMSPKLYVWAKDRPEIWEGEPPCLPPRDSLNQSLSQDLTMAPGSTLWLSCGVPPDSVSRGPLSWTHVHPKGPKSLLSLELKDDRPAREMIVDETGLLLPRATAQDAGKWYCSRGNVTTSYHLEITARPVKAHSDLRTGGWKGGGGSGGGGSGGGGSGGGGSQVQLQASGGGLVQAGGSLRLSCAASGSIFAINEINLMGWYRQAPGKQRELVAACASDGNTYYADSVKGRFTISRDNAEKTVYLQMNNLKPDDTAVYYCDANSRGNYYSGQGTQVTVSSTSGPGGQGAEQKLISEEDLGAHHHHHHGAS
notes: CD19 variant-VHH fusion; also called CD19-VHH1B12/Clec12A
On to B8, for which the concentration giving a half-maximal response (EC50) in [4] is 0.233 µg/mL and 4.96 nM; in assay [13], 0.004 µg/mL and 0.086 nM; in assay [7], 0.155 µg/mL and 3.3 nM. In addition, in assay [13], the “C of the 4-P fit (midpoint)” value is 0.00403 µg/mL.

B9: CD19 ECD N term mutant#3-EGFR Fn3 (designed binder)
chain: PEEPLVVKVEEGDTAALWCLKGTSDGPTQQLTWSRESPLKPFLKLSLGLPGMGVHMRPGAVSAVISNVSQQMGGFYLCQPGPPSEKAWQPGWTVNVEGSGELFRWNVSDLGGLGCGLKNRSSEGPSSPSGKLMSPKLYVWAKDRPEIWEGEPPCLPPRDSLNQSLSRDMTVAPGSTLWLSCGVPPDSVSRGPLSWTHVHPKGPKSLLSLELKDDRPARDMWVMGTSLILPRATAQDAGKYYCHRGNLTMSFHLEVVARPVKAHSDLRTGGWKGGGGSGGGGSGGGGSGGGGSVSDVPRDLEVVAATPTSLLISWFDYAVTYYRITYGETGGNSPVQEFTVPGWISTATISGLKPGVDYTITVYAVTDNSHWPFRSTPISTNYRTEIDKPPQHHHHHH
notes: Fusion protein; also called construct #229; CD19-Fn3/EGFR
With B9, in [2], the binding result is “binds”.
